The values that follow come from JP2000515494A.

Changes are numbered by the printed parent chain. Several values for one entry are separate records, joined by “and”; a condition that tells them apart may be missing. Equal values may be shown once.

The target in assay [1] is 組換えヒトIL-5 (recombinant human interleukin-5) (human) (UniProt P05113). Briefly: optical biosensor (BIAcore).
For assay [2], the target named is hIL-5/IL-5レセプターα鎖複合体 (hIL-5 captured on IL-5RαFc) (human) (UniProt P05113). Briefly: ELISA (europium fluorescence), IL-5RαFc on protein A + IL-5, mAb added; concentration 8 ng/ml.
Assay [3] shares this target. Briefly: ELISA (europium fluorescence), IL-5RαFc on protein A + IL-5, mAb added; concentration 32 ng/ml.
Assay [4] shares this target. Briefly: ELISA (europium fluorescence), IL-5RαFc on protein A + IL-5, mAb added; concentration 0 ng/ml. Background: ELISA stands for enzyme-linked immunosorbent assay.
The target is the same in assay [5]. Briefly: ELISA (europium fluorescence), IL-5RαFc on protein A + IL-5, mAb added; concentration 2 ng/ml.
Assay [6] addresses 組換えヒトIL-5 (recombinant human interleukin-5) (human) (UniProt P05113). Briefly: cell-based or functional assay.
The target is the same in assay [7]. As to the kind of experiment: optical biosensor.
The target is the same in assay [8]. Briefly: inhibition of 125I-IL-5 binding to IL-5Rα (Drosophila membranes), dose dependent.

B1: ネズミモノクローナル抗体2B6 (antibody, from another filing, V domains shown)
VH: QVQLKESGPGLVAPSQSLSITCTVSGFSLTSYSVHWVRQPPGKGLEWLGVIWASGGTDYNSALMSRLSISKDNSKSQVFLKLNSLQTDDTAMYYCARDPPSSLLRLDYWGQGTTLTVSS
VL: DIVMTQSPSSLSVSAGEKVTMSCKSSQSLLNSGNQKNYLAWYQQKPGQPPKLLIYGASTRESGVPDRFTGSGSGTDFTLSISSVQAEDLAVYYCQNVHSFPFTFGSGTELEIK
On to B1, for which, in assay [1], the Kd – broadly, the constant that tells how readily two partners part at equilibrium – was 22 pM and < 35 pM. The 結合(個数) in assay [2] was 3200 個数; in assay [3], 4980 個数; in assay [4], 2770 個数; in assay [5], 2940 個数. Besides, in assay [6], the ネズミB13の増殖の阻害 (B13 proliferation assay) is more than 70%.

B2: mAb 2B6から由来のFab (recombinant 2B6 Fab, hexa-His) (Fab, from another filing, V domains shown)
VH: B1 VH
VL: B1 VL
B2: the Kd in assay [7] was determined as 90 pM. Also, the IC50 (in general, the concentration at which inhibition is half-maximal) in assay [8] is 7.5 µg/mL.

B3: ネズミモノクローナル抗体2E3 (antibody, from another filing, mouse IgG2a, V domains shown)
VH: PGLVAPSQSLSITCTVSGFSLTSYSVHWVRQPPGKGLEWLGVIWASGGTDYNSALMSRLSISKDNSKSQVFLKLNSLQTDDAAMYYCARDPPFSLLRLDFWGQGTTLTVSS
VL: SSLSVSAGEKVTMSCKSSQSLLNSGNQKNYLAWYQQKPGQPPKLLIYGASTRESGVPDRFTGSGSGTDFTLTISSVQAEDLAVYYCQNDHSFPFTFGSGTELEIK
Turning to B3, the Kd in assay [1] is 20 pM and < 35 pM. Moreover, in assay [6], the ネズミB13の増殖の阻害 (B13 proliferation assay) was more than 70%.

B4: ネズミモノクローナル抗体2F2 (antibody, from another filing, V domains shown)
VH: B3 VH with Q78R, A82T, F93S, F100Y
VL: B3 VL
B4: the ネズミB13の増殖の阻害 (B13 proliferation assay) in assay [6] is more than 70%.
